Experimental data: US20240409627A1

Columns and labels:
[1] = target: HA-tagged endoglin (endoglin-L) (UniProt P17813); experiment: patch/FRAP on live COS7 cells; HA-endoglin immobilized by IgG cross-linking, Fab'-labeled myc-ALK1 measured; no inhibin
[2] = target: HA-tagged endoglin (endoglin-L) (UniProt P17813); experiment: patch/FRAP on live COS7 cells; HA-endoglin immobilized by IgG cross-linking, Fab'-labeled myc-ALK1 measured; in the presence of 4 nM inhibin A
[3] = target: recombinant inhibin A (UniProt P05111); experiment: cell-based or functional assay
Sequence of UniProt P05111 (P05111 233-366 limits assumed, chain 1 of 2): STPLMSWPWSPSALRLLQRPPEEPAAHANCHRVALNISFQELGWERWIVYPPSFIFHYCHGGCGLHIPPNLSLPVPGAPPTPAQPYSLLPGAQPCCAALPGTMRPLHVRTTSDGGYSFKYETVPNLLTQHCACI
Sequence of UniProt P05111 (P08476 311-426 limits assumed, chain 2 of 2, further chain): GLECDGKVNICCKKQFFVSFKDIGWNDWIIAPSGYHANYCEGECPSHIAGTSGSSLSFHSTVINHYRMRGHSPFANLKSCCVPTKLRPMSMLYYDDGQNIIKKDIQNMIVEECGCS

[4] = target: T1, endoglin on HMEC-1 human microvascular endothelial cells (human) (UniProt P17813); experiment: cell-based or functional assay
T1 sequence (looked up): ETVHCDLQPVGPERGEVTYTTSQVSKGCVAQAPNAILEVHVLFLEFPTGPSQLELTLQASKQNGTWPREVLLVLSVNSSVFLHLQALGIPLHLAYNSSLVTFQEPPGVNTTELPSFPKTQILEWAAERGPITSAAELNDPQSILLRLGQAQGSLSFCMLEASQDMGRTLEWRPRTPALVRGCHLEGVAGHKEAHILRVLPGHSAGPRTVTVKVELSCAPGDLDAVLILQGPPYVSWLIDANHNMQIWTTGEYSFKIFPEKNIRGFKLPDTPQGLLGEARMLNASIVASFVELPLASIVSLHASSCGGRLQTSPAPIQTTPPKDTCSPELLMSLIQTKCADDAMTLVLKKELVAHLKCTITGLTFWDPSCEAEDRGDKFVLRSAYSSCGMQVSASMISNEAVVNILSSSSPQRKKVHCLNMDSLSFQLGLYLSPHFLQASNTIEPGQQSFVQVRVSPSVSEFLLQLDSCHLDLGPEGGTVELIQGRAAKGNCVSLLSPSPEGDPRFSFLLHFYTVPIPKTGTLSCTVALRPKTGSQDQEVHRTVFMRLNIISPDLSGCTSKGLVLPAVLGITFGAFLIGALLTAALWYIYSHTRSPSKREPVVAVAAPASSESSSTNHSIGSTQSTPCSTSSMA

myc-tagged ALK1 (from UniProt P37023 22-503) (receptor)
reduction in Rf (mobile fraction) [1]: 45%
reduction in Rf (mobile fraction) [2]: 70%

ALK1-Fc, a human chimeric ALK1 protein (from UniProt P37023 22-118) (Fc fusion)
fold decrease in inhibin A induced permeability of HMEC-1 monolayer at 4 h (FITC-dextran), 10 ng/mL ALK1-Fc [3]: 1.5 times

B1: Tracon 105 (TRC105), a humanized endoglin monoclonal antibody (antibody, INN chains, looked up, V domains shown)
VH: EVKLEESGGGLVQPGGSMKLSCAASGFTFSDAWMDWVRQSPEKGLEWVAEIRSKASNHATYYAESVKGRFTISRDDSKSSVYLQMNSLRAEDTGIYYCTRWRRFFDSWGQGTTLTVSS
VL: QIVLSQSPAILSASPGEKVTMTCRASSSVSYMHWYQQKPGSSPKPWIYATSNLASGVPVRFSGSGSGTSYSLTISRVEAEDAATYYCQQWSSNPLTFGAGTKLELK
fold decrease in inhibin A induced permeability of HMEC-1 monolayer at 4 h (FITC-dextran), 100 µg/mL TRC105 [4]: 2.2 times
